Experimental data reported in patent publication US7579180B2, “Beta secretase polypeptides” (Amgen Inc., priority 1999, dated 2009).

Target: T1, human beta-secretase-Fc fusion (Homo sapiens, UniProt P56817)
T1 construct: A plasmid containing cDNA encoding amino acids 1-460 of beta-secretase fused to the Fc portion of human IgG; made in house; host or cells: human embryonic kidney 293T cells, stably transfected; purified from conditioned medium on protein A
Assay: Beta-secretase activity assay: cleavage of DNP-labeled APP peptides, HPLC
Type: biochemical
Settings: Sw, Wt and MV peptides; FIG. 11
Description: FIG. 11 is a graph depicting the ability of human beta-secretase-Fc fusion to cleave various APP peptides. The X-axis is the amount of enzyme in the reaction mixture and the Y-axis is the amount of cleavage (denoted as pmol product formed) of each of three substrate peptides. “Sw” refers to the APP peptide with the Swedish mutation; “Wt” refers to wild type APP peptide; and “MV” refers to a mutated APP peptide.
Recombinant native as well as mutant beta secretase polypeptides were assayed for activity by measuring the ability of the molecule to cleave various A-beta peptides.
Each assay was conducted as follows. […] Quenched reactions were analyzed by HPLC on a 5 μm, C18 reversed-phase column (Sephasil Peptide, 4.6×100 mm; Amersham Pharmacia Biotech, Piscataway, N.J.) using first a linear gradient of 18-31.5 percent acetonitrile in 0.1 percent TFA over 40 minutes, then 31.5-81 percent acetonitrile for 1 minute, then 81 percent acetonitrile for 4 minutes, and then returning to 18-percent acetonitrile for several minutes to reequilibrate the column. […] Proteolysis of the Sw and WT octapeptides was evaluated using a linear gradient of 27-37.8 percent acetonitrile over 24 minutes on the same column.
Both product and substrate were monitored by absorbance at 360 nm. […]
The concentration of standard was determined from the extinction coefficient of DNP (e365nm=16 mM^−1cm^−1). […]

T1 sequence (P56817 with tags, fused parts or gaps limits assumed): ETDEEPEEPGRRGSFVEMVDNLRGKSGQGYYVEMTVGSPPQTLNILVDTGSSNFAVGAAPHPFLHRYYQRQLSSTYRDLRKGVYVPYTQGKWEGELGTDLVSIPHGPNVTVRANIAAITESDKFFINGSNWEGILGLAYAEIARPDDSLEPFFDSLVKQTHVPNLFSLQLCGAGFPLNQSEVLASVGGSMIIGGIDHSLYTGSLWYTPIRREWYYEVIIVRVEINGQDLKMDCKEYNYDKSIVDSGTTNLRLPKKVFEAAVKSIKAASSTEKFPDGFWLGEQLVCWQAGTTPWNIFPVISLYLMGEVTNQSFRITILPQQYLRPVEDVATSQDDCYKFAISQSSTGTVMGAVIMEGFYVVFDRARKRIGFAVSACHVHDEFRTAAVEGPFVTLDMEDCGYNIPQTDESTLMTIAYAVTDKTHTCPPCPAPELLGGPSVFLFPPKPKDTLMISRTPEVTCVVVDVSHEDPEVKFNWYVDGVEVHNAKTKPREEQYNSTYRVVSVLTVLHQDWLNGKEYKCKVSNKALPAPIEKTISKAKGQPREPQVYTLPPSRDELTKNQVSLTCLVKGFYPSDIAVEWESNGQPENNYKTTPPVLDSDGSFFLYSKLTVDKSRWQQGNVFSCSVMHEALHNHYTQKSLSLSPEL

B1: beta-secretase-Fc: amino acids 1-460 of human beta-secretase fused to the Fc portion of human IgG1, alanine-valine-threonine at the junction (protein)
chain: TQHGIRLPLRSGLGGAPLGLRLPRETDEEPEEPGRRGSFVEMVDNLRGKSGQGYYVEMTVGSPPQTLNILVDTGSSNFAVGAAPHPFLHRYYQRQLSSTYRDLRKGVYVPYTQGKWEGELGTDLVSIPHGPNVTVRANIAAITESDKFFINGSNWEGILGLAYAEIARPDDSLEPFFDSLVKQTHVPNLFSLQLCGAGFPLNQSEVLASVGGSMIIGGIDHSLYTGSLWYTPIRREWYYEVIIVRVEINGQDLKMDCKEYNYDKSIVDSGTTNLRLPKKVFEAAVKSIKAASSTEKFPDGFWLGEQLVCWQAGTTPWNIFPVISLYLMGEVTNQSFRITILPQQYLRPVEDVATSQDDCYKFAISQSSTGTVMGAVIMEGFYVVFDRARKRIGFAVSACHVHDEFRTAAVEGPFVTLDMEDCGYNIPQTDESTLMTIAYAVT
modifications: left off: a dimerising Fc or GST
notes: amino acids 1-460 of human beta-secretase fused to the Fc portion of human IgG1, alanine-valine-threonine at the junction
  substrate specificity of the enzyme: has the same substrate specificity that has previously been described for beta-secretase from intact cells
